Data: patent US8440629B2

Tests used:
LRP6 CR1-3 (human) = LRP6 CR1-3 (human) (UniProt O75581); experiment: solid-phase binding assay, immobilised CR protein, anti-RAP detection
LRP6 CR12 (human) = LRP6 CR12 (human) (UniProt O75581); experiment: as above
LRP6 CR23 (human) = LRP6 CR23 (human) (UniProt O75581); experiment: as above
VLDLR CR6-8 (human) = VLDLR CR6-8 (human) (UniProt P98155); experiment: as above
VLDLR CR78 (human) = VLDLR CR78 (human) (UniProt P98155); experiment: as above
[1] = biological target: full-length LRP1 expressed on CHO-K1 cells
[2] = biological target: recombinant mouse VLDLR ectodomain (mouse) (UniProt P98156); experiment: solid-phase binding assay, immobilised receptor, streptavidin-HRP detection, EDTA-corrected

Q: Which results are given for RAP d3 (ligand)?
A: binding as percent of that for LRP1 CR3-5 (LRP6 CR1-3 (human)): < 5%; binding as percent of that for LRP1 CR3-5 (LRP6 CR12 (human)): < 5%; binding as percent of that for LRP1 CR3-5 (LRP6 CR23 (human)): < 5%; Kd (VLDLR CR6-8 (human)): > 300 nM; binding as percent of that for LRP1 CR3-5 (VLDLR CR78 (human)): < 5%

Q: For “mRAPc combined with streptavidin-saporin conjugate”, which viable cell number (MTT assay, 48 hours) [1] is on record?
A: The viable cell number (MTT assay, 48 hours) was 40%.

Q: How did the Kd [2] turn out when “tag-free RAP d3 peptide linked to maleimide-PEO2-biotin (ligand)” was run?
A: The Kd was 1 nM.
